# Test results: patent US20150368311A1 (Sanofi, published 2015)
# Non-standard residues stand in square brackets, D forms with d. No end group written: not given here. Ala(4-thiazolyl) = N[C@@H](Cc1cscn1)C(=O)O; 1Nal = N[C@@H](Cc1cccc2ccccc12)C(=O)O; Phg = N[C@H](C(=O)O)c1ccccc1; Tle = CC(C)(C)[C@H](N)C(=O)O; Nle = CCCC[C@H](N)C(=O)O
# B1: SEQ ID NO: 25 (peptide)
# peptide: [Ala(4-thiazolyl)]SQGTFTSD[Tle]SKQ[Nle]ESRRAQEFIEWLLATGPESGAPPPS-OH
# modifications: N-terminus assumed
# SMILES: CCCC[C@H](NC(=O)[C@H](CCC(N)=O)NC(=O)[C@H](CCCCN)NC(=O)[C@H](CO)NC(=O)[C@@H](NC(=O)[C@H](CC(=O)O)NC(=O)[C@H](CO)NC(=O)[C@@H](NC(=O)[C@H](Cc1ccccc1)NC(=O)[C@@H](NC(=O)CNC(=O)[C@H](CCC(N)=O)NC(=O)[C@H](CO)NC(=O)[C@@H](N)Cc1cscn1)[C@@H](C)O)[C@@H](C)O)C(C)(C)C)C(=O)N[C@@H](CCC(=O)O)C(=O)N[C@@H](CO)C(=O)N[C@@H](CCCNC(=N)N)C(=O)N[C@@H](CCCNC(=N)N)C(=O)N[C@@H](C)C(=O)N[C@@H](CCC(N)=O)C(=O)N[C@@H](CCC(=O)O)C(=O)N[C@@H](Cc1ccccc1)C(=O)N[C@H](C(=O)N[C@@H](CCC(=O)O)C(=O)N[C@@H](Cc1c[nH]c2ccccc12)C(=O)N[C@@H](CC(C)C)C(=O)N[C@@H](CC(C)C)C(=O)N[C@@H](C)C(=O)N[C@H](C(=O)NCC(=O)N1CCC[C@H]1C(=O)N[C@@H](CCC(=O)O)C(=O)N[C@@H](CO)C(=O)NCC(=O)N[C@@H](C)C(=O)N1CCC[C@H]1C(=O)N1CCC[C@H]1C(=O)N1CCC[C@H]1C(=O)N[C@@H](CO)C(=O)O)[C@@H](C)O)[C@@H](C)CC
# B2: SEQ ID NO: 36 (peptide)
# peptide: HSQGTFTSDLSKQ[Nle]ESRRAQEFIEWLLATGPESGAPPPS-OH
# modifications: N-terminus assumed
# SMILES: CCCC[C@H](NC(=O)[C@H](CCC(N)=O)NC(=O)[C@H](CCCCN)NC(=O)[C@H](CO)NC(=O)[C@H](CC(C)C)NC(=O)[C@H](CC(=O)O)NC(=O)[C@H](CO)NC(=O)[C@@H](NC(=O)[C@H](Cc1ccccc1)NC(=O)[C@@H](NC(=O)CNC(=O)[C@H](CCC(N)=O)NC(=O)[C@H](CO)NC(=O)[C@@H](N)Cc1c[nH]cn1)[C@@H](C)O)[C@@H](C)O)C(=O)N[C@@H](CCC(=O)O)C(=O)N[C@@H](CO)C(=O)N[C@@H](CCCNC(=N)N)C(=O)N[C@@H](CCCNC(=N)N)C(=O)N[C@@H](C)C(=O)N[C@@H](CCC(N)=O)C(=O)N[C@@H](CCC(=O)O)C(=O)N[C@@H](Cc1ccccc1)C(=O)N[C@H](C(=O)N[C@@H](CCC(=O)O)C(=O)N[C@@H](Cc1c[nH]c2ccccc12)C(=O)N[C@@H](CC(C)C)C(=O)N[C@@H](CC(C)C)C(=O)N[C@@H](C)C(=O)N[C@H](C(=O)NCC(=O)N1CCC[C@H]1C(=O)N[C@@H](CCC(=O)O)C(=O)N[C@@H](CO)C(=O)NCC(=O)N[C@@H](C)C(=O)N1CCC[C@H]1C(=O)N1CCC[C@H]1C(=O)N1CCC[C@H]1C(=O)N[C@@H](CO)C(=O)O)[C@@H](C)O)[C@@H](C)CC
# B3: SEQ ID NO: 26 (peptide)
# peptide: HSQGTFTSDLSKQ[Nle]ESRRAQDFIEWLLATGPESGAPPPS-OH
# modifications: N-terminus assumed
# SMILES: CCCC[C@H](NC(=O)[C@H](CCC(N)=O)NC(=O)[C@H](CCCCN)NC(=O)[C@H](CO)NC(=O)[C@H](CC(C)C)NC(=O)[C@H](CC(=O)O)NC(=O)[C@H](CO)NC(=O)[C@@H](NC(=O)[C@H](Cc1ccccc1)NC(=O)[C@@H](NC(=O)CNC(=O)[C@H](CCC(N)=O)NC(=O)[C@H](CO)NC(=O)[C@@H](N)Cc1c[nH]cn1)[C@@H](C)O)[C@@H](C)O)C(=O)N[C@@H](CCC(=O)O)C(=O)N[C@@H](CO)C(=O)N[C@@H](CCCNC(=N)N)C(=O)N[C@@H](CCCNC(=N)N)C(=O)N[C@@H](C)C(=O)N[C@@H](CCC(N)=O)C(=O)N[C@@H](CC(=O)O)C(=O)N[C@@H](Cc1ccccc1)C(=O)N[C@H](C(=O)N[C@@H](CCC(=O)O)C(=O)N[C@@H](Cc1c[nH]c2ccccc12)C(=O)N[C@@H](CC(C)C)C(=O)N[C@@H](CC(C)C)C(=O)N[C@@H](C)C(=O)N[C@H](C(=O)NCC(=O)N1CCC[C@H]1C(=O)N[C@@H](CCC(=O)O)C(=O)N[C@@H](CO)C(=O)NCC(=O)N[C@@H](C)C(=O)N1CCC[C@H]1C(=O)N1CCC[C@H]1C(=O)N1CCC[C@H]1C(=O)N[C@@H](CO)C(=O)O)[C@@H](C)O)[C@@H](C)CC
# B4: SEQ ID NO: 33 (peptide)
# peptide: HSQGTFTSD[1Nal]SKQLESRRAQEFIEWLLATGPESGAPPPS-OH
# modifications: N-terminus assumed
# SMILES: CC[C@H](C)[C@H](NC(=O)[C@H](Cc1ccccc1)NC(=O)[C@H](CCC(=O)O)NC(=O)[C@H](CCC(N)=O)NC(=O)[C@H](C)NC(=O)[C@H](CCCNC(=N)N)NC(=O)[C@H](CCCNC(=N)N)NC(=O)[C@H](CO)NC(=O)[C@H](CCC(=O)O)NC(=O)[C@H](CC(C)C)NC(=O)[C@H](CCC(N)=O)NC(=O)[C@H](CCCCN)NC(=O)[C@H](CO)NC(=O)[C@H](Cc1cccc2ccccc12)NC(=O)[C@H](CC(=O)O)NC(=O)[C@H](CO)NC(=O)[C@@H](NC(=O)[C@H](Cc1ccccc1)NC(=O)[C@@H](NC(=O)CNC(=O)[C@H](CCC(N)=O)NC(=O)[C@H](CO)NC(=O)[C@@H](N)Cc1c[nH]cn1)[C@@H](C)O)[C@@H](C)O)C(=O)N[C@@H](CCC(=O)O)C(=O)N[C@@H](Cc1c[nH]c2ccccc12)C(=O)N[C@@H](CC(C)C)C(=O)N[C@@H](CC(C)C)C(=O)N[C@@H](C)C(=O)N[C@H](C(=O)NCC(=O)N1CCC[C@H]1C(=O)N[C@@H](CCC(=O)O)C(=O)N[C@@H](CO)C(=O)NCC(=O)N[C@@H](C)C(=O)N1CCC[C@H]1C(=O)N1CCC[C@H]1C(=O)N1CCC[C@H]1C(=O)N[C@@H](CO)C(=O)O)[C@@H](C)O
# B5: SEQ ID NO: 5 (peptide)
# peptide: [Ala(4-thiazolyl)]SQGTFTSDYSKQLESRRAQEFIEWLLAGGPESGAPPPS-OH
# modifications: N-terminus assumed
# SMILES: CC[C@H](C)[C@H](NC(=O)[C@H](Cc1ccccc1)NC(=O)[C@H](CCC(=O)O)NC(=O)[C@H](CCC(N)=O)NC(=O)[C@H](C)NC(=O)[C@H](CCCNC(=N)N)NC(=O)[C@H](CCCNC(=N)N)NC(=O)[C@H](CO)NC(=O)[C@H](CCC(=O)O)NC(=O)[C@H](CC(C)C)NC(=O)[C@H](CCC(N)=O)NC(=O)[C@H](CCCCN)NC(=O)[C@H](CO)NC(=O)[C@H](Cc1ccc(O)cc1)NC(=O)[C@H](CC(=O)O)NC(=O)[C@H](CO)NC(=O)[C@@H](NC(=O)[C@H](Cc1ccccc1)NC(=O)[C@@H](NC(=O)CNC(=O)[C@H](CCC(N)=O)NC(=O)[C@H](CO)NC(=O)[C@@H](N)Cc1cscn1)[C@@H](C)O)[C@@H](C)O)C(=O)N[C@@H](CCC(=O)O)C(=O)N[C@@H](Cc1c[nH]c2ccccc12)C(=O)N[C@@H](CC(C)C)C(=O)N[C@@H](CC(C)C)C(=O)N[C@@H](C)C(=O)NCC(=O)NCC(=O)N1CCC[C@H]1C(=O)N[C@@H](CCC(=O)O)C(=O)N[C@@H](CO)C(=O)NCC(=O)N[C@@H](C)C(=O)N1CCC[C@H]1C(=O)N1CCC[C@H]1C(=O)N1CCC[C@H]1C(=O)N[C@@H](CO)C(=O)O
# B6: SEQ ID NO: 32 (peptide)
# peptide: HSQGTFTSD[Phg]SKQLESRRAQEFIEWLLATGPESGAPPPS-OH
# modifications: N-terminus assumed
# SMILES: CC[C@H](C)[C@H](NC(=O)[C@H](Cc1ccccc1)NC(=O)[C@H](CCC(=O)O)NC(=O)[C@H](CCC(N)=O)NC(=O)[C@H](C)NC(=O)[C@H](CCCNC(=N)N)NC(=O)[C@H](CCCNC(=N)N)NC(=O)[C@H](CO)NC(=O)[C@H](CCC(=O)O)NC(=O)[C@H](CC(C)C)NC(=O)[C@H](CCC(N)=O)NC(=O)[C@H](CCCCN)NC(=O)[C@H](CO)NC(=O)[C@@H](NC(=O)[C@H](CC(=O)O)NC(=O)[C@H](CO)NC(=O)[C@@H](NC(=O)[C@H](Cc1ccccc1)NC(=O)[C@@H](NC(=O)CNC(=O)[C@H](CCC(N)=O)NC(=O)[C@H](CO)NC(=O)[C@@H](N)Cc1c[nH]cn1)[C@@H](C)O)[C@@H](C)O)c1ccccc1)C(=O)N[C@@H](CCC(=O)O)C(=O)N[C@@H](Cc1c[nH]c2ccccc12)C(=O)N[C@@H](CC(C)C)C(=O)N[C@@H](CC(C)C)C(=O)N[C@@H](C)C(=O)N[C@H](C(=O)NCC(=O)N1CCC[C@H]1C(=O)N[C@@H](CCC(=O)O)C(=O)N[C@@H](CO)C(=O)NCC(=O)N[C@@H](C)C(=O)N1CCC[C@H]1C(=O)N1CCC[C@H]1C(=O)N1CCC[C@H]1C(=O)N[C@@H](CO)C(=O)O)[C@@H](C)O
# Experiments:
# Assay in all cases: cell-based or functional assay
# [1] = target: T1, human GLP-1 receptor (human, UniProt P43220 24-463)
# [2] = target: T2, human glucagon receptor (human, UniProt P47871 26-477)
# T2 sequence (P47871 26-477): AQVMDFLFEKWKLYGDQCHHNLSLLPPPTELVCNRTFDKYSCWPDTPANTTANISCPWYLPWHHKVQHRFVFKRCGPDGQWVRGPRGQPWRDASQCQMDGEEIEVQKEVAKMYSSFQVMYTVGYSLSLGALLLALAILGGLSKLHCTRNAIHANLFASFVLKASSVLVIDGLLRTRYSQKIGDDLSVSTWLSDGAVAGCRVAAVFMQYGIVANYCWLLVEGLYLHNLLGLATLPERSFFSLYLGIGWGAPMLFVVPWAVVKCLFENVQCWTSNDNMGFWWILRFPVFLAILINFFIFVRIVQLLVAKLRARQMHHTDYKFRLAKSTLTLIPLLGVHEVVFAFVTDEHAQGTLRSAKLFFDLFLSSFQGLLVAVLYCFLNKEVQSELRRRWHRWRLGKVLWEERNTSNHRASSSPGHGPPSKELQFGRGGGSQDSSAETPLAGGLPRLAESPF
# [3] = target: T1, human GLP-1 receptor; remark: listed apart in the source
# [4] = target: T2, human glucagon receptor; remark: listed apart in the source
Binder,"EC50 hGLP-1R, cAMP formation [1] [pM]","EC50 hGlucagon-R, cAMP formation [2] [pM]","EC50 hGLP-1 R [pM], cAMP formation [3] [pM]","EC50 hGLUC R [pM], cAMP formation [4] [pM]"
HSQGTFTSDYSKQLESRRAQEFIEWLLATGPESGAPPPS-OH [SEQ ID NO: 29],145,0.9,–,–
B1,–,–,23100,0.8
HSQGTFTSDLSKQLESRRAQDFIEWLLATGPESGAPPPS-OH [SEQ ID NO: 35],934,7.1,–,–
B2,358,1.4,–,–
HSQGTFTSDLSKQLESRRAQEFIEWLLATGPESGAPPPS-OH [SEQ ID NO: 34],363,1.4,–,–
HSQGTFTSDISKQLESRRAQEFIEWLLATGPESGAPPPS-OH [SEQ ID NO: 31],941,4.1,–,–
HSQGTFTSDLSKQLESRRAQEFIEWLLAGGPESGAPPPS-OH [SEQ ID NO: 27],80.8,1.3,–,–
B3,1240,9.4,–,–
B4,159,1.1,–,–
B5,2190,0.6,2190,0.6
HSQGTFTSDVSKQLESRRAQEFIEWLLATGPESGAPPPS-OH [SEQ ID NO: 30],1180,6.5,–,–
HSQGTFTSDYSKQLESRRAQEFIEWLLAGGPESGAPPPS-OH [SEQ ID NO: 28],52.4,1,–,–
B6,18700,12,–,–
